The source of these data is paper PMC10693918.

The term stoichiometry N denotes a count of units in the complex or per binding partner.

The test deals with TniQ transposition protein of the type I-F3b CAST element Tn6900, His6-tagged. The test is described as follows: cryo-EM structure.

As to “TniQ transposition protein of the type I-F3b CAST element Tn6900, His6-tagged (natural protein)”, the stoichiometry N was 2.
